# pIC50: −log10 of the molar value.
# What was measured:
# [1] = target: T1, α1β1 integrin (Homo sapiens, UniProt P05556+P56199); assay: adhesion of α1K562 cells to immobilized collagen IV; type: cell-based; conditions: α1K562 cells, α1β1, collagen IV
# T1 construct: expressed in transfected cells; host or cells: α1K562 cells
# Method: Collagen IV (0.2 μg/well) in 0.02 M acetic acid was immobilized by incubation overnight at 4° C. on a 96-well plate. Plates were then blocked with 1% (w/v) BSA (bovine serum albumin) in Hank's Balanced Salt Solution (HBSS) containing 3 mM Mg^2+ at room temperature for 1-2 hours to prevent cells from non-specifically binding to the plates. α1K562 cells were labeled by incubation with 12.5 μM 5-chloromethylfluorescein diacetete (CMFDA) in HBSS for 15 minutes at 37° C. CMFDA labeled α1K562 cells were then pelleted, washed and resuspended in HBSS buffer containing 3 mM Mg^2+ and 1% BSA. […] The plates were washed three times with HBSS containing 3 mM Mg^2+ and 1% (w/v) BSA to remove unbound cells. Bound cells were lysed using 0.5% (v/v) Triton X-100 in H2O. Fluorescent CMFDA released by lysis of adherent cells in a given well was read using a Cytofluor 2350 fluorescence plate reader.
# (§1) Adhesive ligands for the selected integrins consisted of collagen IV (0.2 μg/well), collagen I, fibronectin, or vascular cell adhesion molecule-1 (VCAM-1). Adhesive ligands in 0.02 M acetic acid were immobilized overnight at 4° C. on a 96-well plate. Plates were then blocked with 1% (w/v) BSA (bovine serum albumin) in Hank's Balanced Salt Solution (HBSS) containing 3 mM Mg^2+ at room temperature for 1-2 hours to prevent cells from non-specifically binding to the plates. α1K562, α2K562, K562, A5, and Jurkat cells expressing the α1β1, α2β1, α5β1, αIIbβ3, and α4β1 integrins respectively were labeled by incubation with 12.5 μM 5-chloromethylfluorescein diacetate (CMFDA) in HBSS for 15 minutes at 37° C. CMFDA labeled cells were then pelleted, washed and resuspended in HBSS buffer containing 3 mM Mg^2+ and 1% (w/v) BSA. […] Plates were then incubated at 37° C. for 30 minutes as indicated in Table 5 and washed three times with HBSS containing 3 mM Mg^2+ and 1% (w/v) BSA to remove unbound cells. Bound cells were lysed using 0.5% (v/v) Triton X-100 in H2O. Fluorescent CMFDA released by lysis of adherent cells in a given well was read using a Cytofluor 2350 fluorescence plate reader.
# (§2) The effect of obtustatin, viperisrastatin, echistatin, and eristostatin on the binding of selected integrins to their adhesive ligands was evaluated using the cell adhesion assay described in Example 6. The integrin-expressing cells, integrins and corresponding adhesive ligands, and the results of the cell adhesion assay are shown in Table 6.
# [2] = target: T1, α1β1 integrin; assay: adhesion of α1K562 cells to collagen I; type: cell-based; conditions: α1β1, Coll I
# Method: as §1, §2
# [3] = target: T2, α6β1 integrin (Homo sapiens, UniProt P05556+P23229); assay: adhesion of α6K562 cells to laminin; type: cell-based; conditions: α6β1, LM
# T2 construct: expressed in transfected cells; host or cells: α6K562 cells
# [4] = system: angiogenesis; assay: Japanese quail chorioallantoic membrane (CAM) angiogenesis assay; type: in vivo; conditions: 20 μg and 50 μg, no angiogenesis stimulators
# Method: The disintegrins obtustatin and eristostatin were evaluated for their effect on angiogenesis via a Japanese quail chorioallantoic membrane (CAM) assay, as is known in the art (see, for example, Parsons-Wingerter P et al., “A Novel Assay of Angiogenesis in the Quail Chorioallantoic Membrane: Stimulation by bFGF and Inhibition by Angiostatin According to Fractal Dimension and Grid Intersection.” Microvascular Research 55(3):201-214, 1998, the disclosure of which is herein incorporated by reference).
# [5] = system: Lewis lung carcinoma; assay: Lewis lung carcinoma growth in syngeneic mouse model; type: in vivo, C57BL/6 mice; conditions: 5 mg/kg intraperitoneally once daily for eight days
# Method: Lewis lung carcinoma cells (1×10^6) were injected under the skin of the C57BL/6 mice (Tacoma Inc., Germantown, N.Y.), and tumors were allowed to grow for one week. The average tumor size after one week of growth was approximately 0.08 cm^3. The one-week time-point was called “day 0.” Two treatment groups of four mice each were injected intraperitoneally once daily with either 5 mg/kg obtustatin or 5 mg/kg echistatin beginning on day 0 for a total of eight days. A control group of four mice received only PBS. Tumor volume was measured daily using the formula length×width^2×0.52.
# [6] = system: human microvascular endothelial cells (HMVECs); assay: BrdU incorporation growth assay in HMVECs; type: cell-based; conditions: 2 μM
# Method: (§3) Human microvascular endothelial cells (HMVECs) and melanoma cells (HS.939T) were cultured and treated with vehicle (control), 2 μM obtustatin, 2 μM echistatin or 50 ng/ml TNF-α. Growth of the cells was determined by a standard BrdU incorporation assay (Chemicon), according to the manufacturer's instructions.
# [7] = system: melanoma cells (HS.939T); assay: BrdU incorporation growth assay in HS.939T melanoma cells; type: cell-based, human; conditions: 2 μM
# Method: as §3
# [8] = target: α2β1 integrin (Homo sapiens, UniProt P05556+P17301); assay: adhesion of AJH10 blocked MV3 cells to immobilized collagen IV; type: cell-based; parameters: endogenous in cells; host or cells: MV3 human melanoma cells; conditions: adhesion via α2β1
# Method: The α1β1 integrin specific inhibitory effect of obtustatin was confirmed using human melanoma MV3 cells. MV3 cells express both the α1β1 and α2β1 integrins. MV3 cells adhere strongly to collagen IV through α1β1 and α2β1 integrin-mediated interactions.
# Collagen IV (0.2 μg/well) in 0.02 M acetic acid was immobilized overnight at 4° C. on a 96-well plate. Plates were then blocked with 1% (w/v) BSA (bovine serum albumin) in Hank's Balanced Salt Solution (HBSS) containing 3 mM Mg^2+ at room temperature for 1-2 hours to prevent cells from non-specifically binding to the plates. α1K562 cells were labeled by incubation with 12.5 μM 5-chloromethylfluorescein diacetete (CMFDA) in HBSS for 15 minutes at 37° C. CMFDA labeled MV3 cells were then pelleted, washed and resuspended in HBSS buffer containing 3mM Mg^2+ and 1% (w/v) BSA. 1×10^5 cells were then added to each well in the presence (10 μg/ml) or absence of the α1 integrin subunit specific AJH10 mAb and α2 integrin subunit specific P1E6 mAb as indicated in FIG. 5. Obtustatin was added at the concentrations indicated in FIG. 5 simultaneously with the mAbs. The plates were then incubated at 37° C. for 30 minutes and washed three times with HBSS containing 3 mM Mg^2+ and 1% (w/v) BSA to remove unbound cells. […] Fluorescent CMFDA released by lysis of adherent cells in a given well was read using a Cytofluor 2350 fluorescence plate reader.
# T1 sequence (P56199 29-1179): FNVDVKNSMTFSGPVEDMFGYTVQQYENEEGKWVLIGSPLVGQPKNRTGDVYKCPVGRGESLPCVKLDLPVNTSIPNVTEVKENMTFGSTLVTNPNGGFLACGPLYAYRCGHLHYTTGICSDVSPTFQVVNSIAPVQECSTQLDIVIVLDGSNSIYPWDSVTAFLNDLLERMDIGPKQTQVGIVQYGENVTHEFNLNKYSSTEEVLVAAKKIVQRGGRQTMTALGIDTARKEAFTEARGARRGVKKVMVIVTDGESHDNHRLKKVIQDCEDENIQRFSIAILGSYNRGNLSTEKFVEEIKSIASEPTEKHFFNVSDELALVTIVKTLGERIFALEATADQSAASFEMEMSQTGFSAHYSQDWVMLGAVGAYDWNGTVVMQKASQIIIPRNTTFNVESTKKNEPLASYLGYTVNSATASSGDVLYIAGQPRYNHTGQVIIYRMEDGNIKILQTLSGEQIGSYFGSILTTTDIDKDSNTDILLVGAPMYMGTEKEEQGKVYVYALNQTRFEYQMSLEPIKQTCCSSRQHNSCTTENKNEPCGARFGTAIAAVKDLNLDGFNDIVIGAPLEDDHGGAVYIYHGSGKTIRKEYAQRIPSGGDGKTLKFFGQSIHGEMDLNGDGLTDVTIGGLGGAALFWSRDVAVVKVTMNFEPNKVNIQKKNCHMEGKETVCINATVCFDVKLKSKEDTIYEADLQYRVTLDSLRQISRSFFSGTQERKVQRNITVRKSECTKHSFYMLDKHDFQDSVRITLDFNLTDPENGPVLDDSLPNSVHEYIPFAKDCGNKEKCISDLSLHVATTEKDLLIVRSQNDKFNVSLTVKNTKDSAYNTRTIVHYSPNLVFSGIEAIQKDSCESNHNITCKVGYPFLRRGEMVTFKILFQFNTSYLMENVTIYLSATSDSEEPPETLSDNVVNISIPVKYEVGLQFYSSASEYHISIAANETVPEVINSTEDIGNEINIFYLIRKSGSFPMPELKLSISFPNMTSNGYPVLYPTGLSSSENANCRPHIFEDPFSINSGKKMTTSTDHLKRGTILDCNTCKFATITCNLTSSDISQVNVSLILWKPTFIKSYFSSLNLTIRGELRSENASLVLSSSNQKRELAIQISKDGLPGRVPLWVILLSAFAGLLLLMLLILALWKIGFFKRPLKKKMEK
# T1 sequence (P05556 21-798): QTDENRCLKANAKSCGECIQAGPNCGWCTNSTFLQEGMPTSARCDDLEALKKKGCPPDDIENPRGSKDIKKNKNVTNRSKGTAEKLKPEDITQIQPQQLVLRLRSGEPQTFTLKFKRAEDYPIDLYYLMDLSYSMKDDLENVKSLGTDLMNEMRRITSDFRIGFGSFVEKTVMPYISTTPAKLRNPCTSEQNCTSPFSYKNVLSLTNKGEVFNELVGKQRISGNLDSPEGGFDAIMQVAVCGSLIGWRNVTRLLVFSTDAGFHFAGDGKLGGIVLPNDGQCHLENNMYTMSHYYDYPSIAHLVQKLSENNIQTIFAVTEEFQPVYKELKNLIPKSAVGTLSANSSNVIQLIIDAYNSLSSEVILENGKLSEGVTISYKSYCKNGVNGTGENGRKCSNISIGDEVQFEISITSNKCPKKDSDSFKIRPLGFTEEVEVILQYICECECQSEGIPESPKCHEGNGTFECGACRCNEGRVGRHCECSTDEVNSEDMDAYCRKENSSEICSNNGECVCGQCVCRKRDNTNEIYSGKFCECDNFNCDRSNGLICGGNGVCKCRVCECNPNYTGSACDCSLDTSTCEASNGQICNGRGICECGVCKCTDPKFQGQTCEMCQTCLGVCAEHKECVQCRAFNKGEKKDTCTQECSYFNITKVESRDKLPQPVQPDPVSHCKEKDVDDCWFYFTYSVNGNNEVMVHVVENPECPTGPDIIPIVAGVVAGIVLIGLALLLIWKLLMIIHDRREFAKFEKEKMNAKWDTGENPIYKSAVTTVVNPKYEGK
# T2 sequence (P23229 24-938 limits assumed): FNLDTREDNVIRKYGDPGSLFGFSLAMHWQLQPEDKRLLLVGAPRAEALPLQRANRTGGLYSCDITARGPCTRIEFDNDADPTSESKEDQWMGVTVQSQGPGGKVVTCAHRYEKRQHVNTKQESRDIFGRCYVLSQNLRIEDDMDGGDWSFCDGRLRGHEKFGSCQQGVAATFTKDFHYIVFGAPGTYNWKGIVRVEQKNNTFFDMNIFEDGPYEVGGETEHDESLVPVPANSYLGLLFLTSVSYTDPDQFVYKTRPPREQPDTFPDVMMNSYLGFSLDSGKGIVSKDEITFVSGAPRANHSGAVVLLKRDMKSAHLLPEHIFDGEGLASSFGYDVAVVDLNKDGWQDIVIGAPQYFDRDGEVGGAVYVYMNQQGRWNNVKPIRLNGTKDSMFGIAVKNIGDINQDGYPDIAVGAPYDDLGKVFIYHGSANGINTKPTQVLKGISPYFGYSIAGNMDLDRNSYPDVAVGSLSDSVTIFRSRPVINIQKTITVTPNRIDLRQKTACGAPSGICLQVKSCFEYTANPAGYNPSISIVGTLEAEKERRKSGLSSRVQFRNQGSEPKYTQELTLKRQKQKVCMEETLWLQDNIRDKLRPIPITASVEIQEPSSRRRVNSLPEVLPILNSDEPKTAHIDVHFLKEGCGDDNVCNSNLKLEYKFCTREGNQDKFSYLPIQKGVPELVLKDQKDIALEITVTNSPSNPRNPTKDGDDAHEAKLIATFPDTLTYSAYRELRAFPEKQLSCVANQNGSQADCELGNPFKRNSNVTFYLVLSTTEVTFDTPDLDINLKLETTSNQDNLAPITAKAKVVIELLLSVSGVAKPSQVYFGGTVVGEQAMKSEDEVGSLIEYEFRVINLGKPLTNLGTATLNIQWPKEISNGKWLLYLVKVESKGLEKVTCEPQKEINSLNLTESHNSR
# T2 sequence (P23229 942-1130 partner limits assumed): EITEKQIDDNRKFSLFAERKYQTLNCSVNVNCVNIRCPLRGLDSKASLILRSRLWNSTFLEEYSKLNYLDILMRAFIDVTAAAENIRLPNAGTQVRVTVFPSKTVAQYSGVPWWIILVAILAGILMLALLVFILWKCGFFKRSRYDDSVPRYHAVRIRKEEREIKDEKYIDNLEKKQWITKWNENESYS
# T2 sequence (P05556 21-798): as the sequence (P05556 21-798) above
substance,measurement,setting,value
Obtustatin (CTTGPCCRQCKLKPAGTTCWKTSLTSHYCTGKSCDCPLYPG),pIC50,[1],8.70
same,pIC50,[2],9.30
same,pIC50,[3],< 5.00
same,inhibitory activity on angiogenesis (fractal dimension),[4],up to 30 % of control
same,inhibition of tumor development (tumor volume),[5],by about half
same,growth (BrdU incorporation),[6],inhibited growth
same,growth (BrdU incorporation),[7],not the HS.939T melanoma cells
same,inhibition of adhesion of MV3 cells to collagen IV,[8],comparatively insensitive
